Measured values taken from paper PMC4840434, “The interactome of Streptococcus pneumoniae and its bacteriophages show highly specific patterns of interactions among bacteria and their phages” (Scientific Reports, 2016).

Experiments:
Test in all cases: pull-down; LuMPIS: N-terminally MBP-tagged bait pulled down on amylose beads, N-terminally eGFP-luciferase-tagged prey detected by luciferase activity; both expressed in HEK cells, raw protein extracts; quadruplicates; LIR against MBP without ORF
[1] = molecular target: Dp-1 orf44, Rho-like domain lipoprotein (LuMPIS construct) (phage Dp-1 of S. pneumoniae)
[2] = molecular target: Dp-1 orf31, Hypothetical protein (LuMPIS construct) (phage Dp-1 of S. pneumoniae)
[3] = molecular target: Dp-1 orf9, No similarity (LuMPIS construct) (phage Dp-1 of S. pneumoniae)
[4] = molecular target: Dp-1 orf48, Hypothetical protein (LuMPIS construct) (phage Dp-1 of S. pneumoniae)
[5] = molecular target: Dp-1 orf34, Hypothetical protein (LuMPIS construct) (phage Dp-1 of S. pneumoniae)
[6] = molecular target: Dp-1 orf14, dUTPase (LuMPIS construct) (phage Dp-1 of S. pneumoniae)
[7] = molecular target: Cp-1 orfb, Hypothetical protein (LuMPIS construct) (phage Cp-1 of S. pneumoniae)
[8] = molecular target: Cp-1 orf17, Tail protein N (LuMPIS construct) (phage Cp-1 of S. pneumoniae)
[9] = molecular target: Cp-1 orfc, Hypothetical protein (LuMPIS construct) (phage Cp-1 of S. pneumoniae)
[10] = molecular target: Dp-1 orf32, Hypothetical protein (LuMPIS construct) (phage Dp-1 of S. pneumoniae)
[11] = molecular target: Dp-1 orf58, Holin (LuMPIS construct) (phage Dp-1 of S. pneumoniae)
[12] = molecular target: Dp-1 orf29, Hypothetical protein (LuMPIS construct) (phage Dp-1 of S. pneumoniae)
[13] = molecular target: Dp-1 orf4, Queuosine biosynth. protein QueE (LuMPIS construct) (phage Dp-1 of S. pneumoniae)
[14] = molecular target: Cp-1 orf10, Connector protein (LuMPIS construct) (phage Cp-1 of S. pneumoniae)
[15] = molecular target: Dp-1 orf18, DNA polymerase III, delta’ subunit HolB (LuMPIS construct) (phage Dp-1 of S. pneumoniae)
[16] = molecular target: Cp-1 orf6, Hypothetical protein (LuMPIS construct) (phage Cp-1 of S. pneumoniae)

Molecule: SP_1536, conserved hypothetical protein (LuMPIS construct) (from UniProt A0A0H2UQS7 1-249) (natural protein)
- LIR (luminescence intensity ratio against MBP alone) [1]: 10

Molecule: SP_1153, hypothetical protein (LuMPIS construct) (from UniProt A0A0H2UQ84 1-392) (natural protein)
- LIR (luminescence intensity ratio against MBP alone) [2]: 6

Molecule: SP_1395, putative phosphate transport system regulatory protein PhoU (LuMPIS construct) (from UniProt A0A0H2UQU1 1-217) (natural protein)
- LIR (luminescence intensity ratio against MBP alone) [3]: 23

Molecule: SP_1504, TPR domain protein (LuMPIS construct) (from UniProt A0A0H2UQR2 1-403) (natural protein)
- LIR (luminescence intensity ratio against MBP alone) [3]: 19

Molecule: SP_1746, conserved hypothetical protein (LuMPIS construct) (from UniProt A0A0H2URF8 1-197) (natural protein)
- LIR (luminescence intensity ratio against MBP alone) [4]: 3

Molecule: SP_1575, conserved hypothetical protein (LuMPIS construct) (from UniProt A0A0H2UQU9 1-225) (natural protein)
- LIR (luminescence intensity ratio against MBP alone) [1]: 14

Molecule: SP_2157, alcohol dehydrogenase, iron-containing (LuMPIS construct) (from UniProt A0A0H2USH2 1-383) (natural protein)
- LIR (luminescence intensity ratio against MBP alone) [5]: 35
- LIR (luminescence intensity ratio against MBP alone) [1]: 13

Molecule: SP_2125, conserved hypothetical protein (LuMPIS construct) (from UniProt A0A0H2URY4 1-113) (natural protein)
- LIR (luminescence intensity ratio against MBP alone) [6]: 45

Molecule: SP_0446, acetolactate synthase, small subunit (LuMPIS construct) (natural protein)
- LIR (luminescence intensity ratio against MBP alone) [5]: 12
- LIR (luminescence intensity ratio against MBP alone) [1]: 6

Molecule: SP_1213, conserved domain protein (LuMPIS construct) (from UniProt A0A0H2UQB9 1-424) (natural protein)
- LIR (luminescence intensity ratio against MBP alone) [7]: 240

Molecule: SP_0979, oligoendopeptidase F (LuMPIS construct) (natural protein)
- LIR (luminescence intensity ratio against MBP alone) [8]: 14
- LIR (luminescence intensity ratio against MBP alone) [9]: 3

Molecule: SP_1915, hypothetical protein (LuMPIS construct) (from UniProt A0A0H2URK9 1-149) (natural protein)
- LIR (luminescence intensity ratio against MBP alone) [10]: 5

Molecule: SP_1731, conserved hypothetical protein (LuMPIS construct) (from UniProt A0A0H2UR87 1-252) (natural protein)
- LIR (luminescence intensity ratio against MBP alone) [11]: 3

Molecule: SP_1669, MutT/nudix family protein (LuMPIS construct) (from UniProt A0A0H2URA0 1-203) (natural protein)
- LIR (luminescence intensity ratio against MBP alone) [10]: 10

Molecule: SP_1751, putative transporter, CorA family (LuMPIS construct) (from UniProt A0A0H2UR86 1-302) (natural protein)
- LIR (luminescence intensity ratio against MBP alone) [11]: 5

Molecule: SP_2168, putative fucose operon repressor (LuMPIS construct) (from UniProt A0A0H2USI3 1-257) (natural protein)
- LIR (luminescence intensity ratio against MBP alone) [3]: 15
- LIR (luminescence intensity ratio against MBP alone) [2]: 5
- LIR (luminescence intensity ratio against MBP alone) [4]: 3

Molecule: SP_1725, sucrose operon repressor (LuMPIS construct) (natural protein)
- LIR (luminescence intensity ratio against MBP alone) [1]: 3

Molecule: SP_2012, glyceraldehyde 3-phosphate dehydrogenase (LuMPIS construct) (natural protein)
- LIR (luminescence intensity ratio against MBP alone) [12]: 3

Molecule: SP_2036, PTS system, IIA component (LuMPIS construct) (from UniProt A0A0H2URW0 1-161) (natural protein)
- LIR (luminescence intensity ratio against MBP alone) [13]: 454

B1: SP_1354, ribosomal protein L7/L12 (LuMPIS construct) (natural protein)
chain: MALNIENIIAEIKEASILELNDLVKAIEEEFGVTAAAPVAVAAADAADAGAAKDSFDVELTSAGDKKVGVIKVVREITGLGLKEAKELVDGAPALVKEGVATAEAEEIKAKLEEAGASVTLK
- LIR (luminescence intensity ratio against MBP alone) [14]: 12

B2: SP_1881, glutamate racemase (LuMPIS construct) (natural protein)
chain: MDNRPIGFLDSGVGGLTVVRELMRQLPHEEIVYIGDSARAPYGPRPAEQIREYTWQLVNFLLTKDVKMIVIACNTATAVVWEEIKAQLDIPVLGVILPGASAAIKSSQGGKIGVIGTPMTVQSDIYRQKIHDLDPDLQVESLACPKFAPLVESGALSTSVTKKVVYETLRPLVGKVDSLILGCTHYPLLRPIIQNVMGPKVQLIDSGAECVRDISVLLNYFEINRGRDAGPLHHRFYTTASSQSFAQIGEEWLEKEIHVEHVEL
- LIR (luminescence intensity ratio against MBP alone) [14]: 6

B3: SP_1584, GTP-sensing transcriptional pleiotropic repressor CodY (LuMPIS construct) (natural protein)
chain: MAHLLEKTRKITSILKRSEEQLQDELPYNAITRQLADIIHCNACIINSKGRLLGYFMRYKTNTDRVEQFFQTKIFPDDYVQGANMIYETEANLPVEHDMSIFPIESRDDFPDGLTTIAPIHVSGIRLGSLIIWRNDKKFEDEDLVLVEIASTVVGIQLLNFQREEDEKNIRRRTAVTMAVNTLSYSELRAVSAILGELNGNEGKLTASVIADRIGITRSVIVNALRKLESAGIIESRSLGMKGTYLKVLISDIFEEVKKRDY
- LIR (luminescence intensity ratio against MBP alone) [15]: 6

B4: SP_1540, single-strand binding protein Ssb (LuMPIS construct) (natural protein)
chain: MINNVVLVGRMTRDAELRYTPSNVAVATFTLAVNRTFKSQNGEREADFINVVMWRQQAENLANWAKKGSLIGVTGRIQTRSYDNQQGQRVYVTEVVAENFQMLESRSVREGHTGGAYSAPTANYSAPTNSVPDFSRNENPFGATNPLDISDDDLPF
- LIR (luminescence intensity ratio against MBP alone) [10]: 3

B5: SP_1713, transcriptional regulator, NrdR family (LuMPIS construct) (natural protein)
chain: MRCPKCGATKSSVIDSRQAEEGNTIRRRRECDECQHRFTTYERVEERTLVVVKKDGTREQFSRDKIFNGIIRSAQKRPVSSDEINMVVNRIEQKLRGRNENEIQSEDIGSLVMEELAELDEITYVRFASVYRSFKDVSELESLLQQITQSSKKKKER
- LIR (luminescence intensity ratio against MBP alone) [16]: 6

B6: SP_0194, conserved hypothetical protein (LuMPIS construct) (natural protein)
chain: MSHDHNHDHEERELITLVDEQGNETLFEILLTIDGKEEFGKNYVLLVPVNAEEDEDGQVEIQAYSFIENEDGTEGELQPIPEDSEDEWNMIEEVFNSFMEE
- LIR (luminescence intensity ratio against MBP alone) [10]: 5
